Laboratory results reported in patent US20260207704A1, “STAPLED PEPTIDES AND METHODS THEREOF” (priority 2022, published 2026).
*1 amine or outer side, *2 acyl side, *3 side chain or, on linkers, in order; H or OH if unused. Bridges are numbered along the chain shown (N, C = ends). Primed or numbered codes have the meaning given here. [ ]: non-standard residue; d: D form. B5(4) = 2-amino-2-(pent-4-en-1-yl)hept-6-enoic acid, stapled through each of its two olefin groups with other olefin-containing amino acid residues, O=C(C(CCCC=[*:3])(CCCC=[*:4])N[*:1])[*:2]; PyrS2″ = (S)-3-amino-1-((pent-4-en-1-yloxy)carbonyl)pyrrolidine-3-carboxylic acid (olefin stapling residue), C=CCCCOC(=O)N1CC[C@@](N[*:1])(C(=O)[*:2])C1; PyrS2(5) = (S)-3-amino-1-((pent-4-en-1-yloxy)carbonyl)pyrrolidine-3-carboxylic acid, C=CCCCOC(=O)N1CC[C@@](N[*:1])(C(=O)[*:2])C1; B5″ = 2-amino-2-(pent-4-en-1-yl)hept-6-enoic acid (bis-olefin stapling residue), C=CCCCC(CCCC=C)(N[*:1])C(=O)[*:2]; Phe(3-COOH) = N[C@@H](Cc1cccc(C(=O)O)c1)C(=O)O; 2F3MeF = Cc1cccc(C[C@H](N[*:1])C(=O)[*:2])c1F; Bta = N[C@@H](Cc1csc2ccccc12)C(=O)O; αAllylPro = C=CC[C@@]1(C(=O)O)CCCN1; tBuAla = CC(C)(C)C[C@H](N)C(=O)O; 3Thi = N[C@@H](Cc1ccsc1)C(=O)O; Cha = N[C@@H](CC1CCCCC1)C(=O)O; PyrS2(4) = not defined here; TfeGA = not defined here; GlnR = not defined here; PL3 = not defined here; B5 = not defined here; Aib = CC(C)(N)C(=O)O

B1: I-106 (peptide)
peptide: Ac-[PL3]D[Cha][B5]D[Phe(3-COOH)]AAFK[PyrS2(4)][2F3MeF][Bta][GlnR]L-NH2
modifications: staple 1-4; bridge 10-14; not fully specified (residue 10); printed as Ac-PL3-Asp-Cha-B5-Asp-3COOHF-Ala-Ala-Phe-Lys*3-PyrS2-2F3MeF-BztA-GlnR*3-Leu-NH2; reading uncertain; also: PyrS2 tied into a staple, partner not placed
B2: I-104 (peptide)
peptide: Ac-[PL3]D[tBuAla][B5]D[Phe(3-COOH)]AAFK[PyrS2(4)][2F3MeF][Bta][GlnR]L-NH2
modifications: staple 1-4; bridge 10-14; not fully specified (residue 10); printed as Ac-PL3-Asp-Npg-B5-Asp-3COOHF-Ala-Ala-Phe-Lys*3-PyrS2-2F3MeF-BztA-GlnR*3-Leu-NH2; reading uncertain; also: PyrS2 tied into a staple, partner not placed
B3: I-1 (peptide)
peptide: Ac-[PL3]DL[B5]DDAAFK[PyrS2(4)][3Thi][Bta][GlnR]-NH2
modifications: staple 1-4; bridge 10-14; not fully specified (residue 10); printed as Ac-PL3-Asp-Leu-B5-Asp-Asp-Ala-Ala-Phe-dLys*3-PyrS2-3Thi-BztA-GlnR*3-NH2; reading uncertain; also: PyrS2 tied into a staple, partner not placed
B4: I-120 (peptide)
peptide: Ac-[αAllylPro]D[tBuAla][B5″]D[TfeGA][Aib]AFK[PyrS2″][2F3MeF][Bta][GlnR]A-NH2
modifications: bridge 10-14; not fully specified (bridges); reading uncertain; also: Lys*3 and GlnR*3 marked *3
B5: I-121 (peptide)
peptide: Ac-[αAllylPro]D[tBuAla][B5(4)]D[TfeGA][Aib]AFK[PyrS2(5)][2F3MeF][Bta][GlnR]A-NH2
modifications: bridge 10-14; not fully specified (bridges); reading uncertain; also: Lys*3 and GlnR*3 marked *3

What follows are molecules tested against beta-catenin (human) (assay: cell-based or functional assay). Details: not given.
beta-catenin (human), sequence (B6V8E6 146-665 limits assumed): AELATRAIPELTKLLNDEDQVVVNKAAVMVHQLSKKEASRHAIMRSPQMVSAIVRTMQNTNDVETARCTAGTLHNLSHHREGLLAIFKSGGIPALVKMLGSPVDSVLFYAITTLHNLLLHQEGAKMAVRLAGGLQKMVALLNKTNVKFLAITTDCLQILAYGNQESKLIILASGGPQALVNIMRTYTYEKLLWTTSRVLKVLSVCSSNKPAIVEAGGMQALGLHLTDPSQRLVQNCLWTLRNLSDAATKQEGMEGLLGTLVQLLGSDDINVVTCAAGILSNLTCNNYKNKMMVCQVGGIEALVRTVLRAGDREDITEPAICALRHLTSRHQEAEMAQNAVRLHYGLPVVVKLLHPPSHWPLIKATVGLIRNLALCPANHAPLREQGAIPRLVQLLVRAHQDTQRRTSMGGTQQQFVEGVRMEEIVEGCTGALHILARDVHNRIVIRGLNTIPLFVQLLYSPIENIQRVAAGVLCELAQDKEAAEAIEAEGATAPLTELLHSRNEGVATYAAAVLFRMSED

Row | NanoBRET Abs IC50 (bin >1.5 uM) | NanoBRET Abs IC50 | Molecule
1 | < 3000 nM | – | B1
2 | < 3000 nM | – | B2
3 | – | > 10000 nM | B3
4 | < 3000 nM | – | B4
5 | < 3000 nM | – | B5

What follows are molecules tested against beta-catenin (human) (assay: fluorescence polarization). Details: not given.

Row | IC50 | Molecule
6 | < 50 nM | B1
7 | < 50 nM | B2
8 | < 50 nM | B3
9 | < 50 nM | B4
10 | < 50 nM | B5

Each molecule was assayed on DLD1 reporter (assay: reporter assay (DLD1 reporter assay)). Details: read-out: DLD1 4% Abs IC50; DLD1 4%.
Type: cell-based
From the text: Various technologies can be utilized for characterizing and/or assessing provided technologies (e.g., agents (e.g., various peptides), compositions, methods, etc.) in accordance with the present disclosure. As described herein, in some embodiments, a useful technology is or comprises fluorescence polarization. In some embodiments, a useful technology assesses LogP or LogD. In some embodiments, a useful technology is or comprises a CHI LogD assay. In some embodiments, a useful technology assesses solubility. In some embodiments, a useful technology is or comprises NanoBRET. In some embodiments, a useful technology is or comprises a reporter assay (e.g., DLD1 reporter assay). In some embodiments, a useful technology is or comprises alphascreen. Certain useful protocols are described in the Examples. Those skilled in the art appreciate that suitable adjustments may be made to such protocols, e.g., according to specific conditions, agents, purposes, etc.
Various technologies can be utilized to assess technologies of the present disclosure. For example, in some embodiments, solubility, LogD, interactions with targets, etc. of various agents such as stapled peptides were assessed using technologies described in WO 2022/261257 (e.g., those in its Examples). In some embodiments, solubility, shake flask LogD, and binding to beta-catenin were assessed. In some embodiments, an assay for assessing interactions, e.g., with beta-catenin, was fluorescence polarization as described in WO 2022/261257. In some embodiments, an assay was Nano-BRET target engagement assay that assessed beta-catenin/TCF4 engagement as described in WO 2022/261257. In some embodiments, an assay was a reporter assay as reported in Example 4 of WO 2022/261257. In some embodiments, an assay was a COLO320DM proliferation assay as reported in Example 4 of WO 2022/261257.

Row | Molecule | IC50
11 | CC(=O)N1CCC[C@]12CC=CCCCC1(CCCC=CCCCOC(=O)N3CC[C@@]4(C3)NC(=O)[C@H](CCCCNC(=O)CC[C@@H](C(=O)N[C@@H](C)C(N)=O)NC(=O)[C@H](Cc3csc5ccccc35)NC(=O)[C@H](Cc3ccsc3)NC4=O)NC(=O)[C@H](Cc3ccccc3)NC(=O)[C@H](C)NC(=O)C(C)(C)NC(=O)[C@H](Cc3cccc(C(=O)O)c3)NC(=O)[C@H](CC(=O)O)NC1=O)NC(=O)[C@H](CC(C)(C)C)NC(=O)[C@H]([C@H](C)O)NC2=O (relative stereo) [I-163, Ac-PL3-aThr-Npg-B5-Asp-3COOHF-Aib-Ala-Phe-Lys*3-PyrS2-3Thi-BztA-GlnR*3-Ala-NH2] | > 5000 nM
12 | CC(=O)N1CCC[C@]12CC=CCCCC1(CCCC=CCCCOC(=O)N3CC[C@@]4(C3)NC(=O)[C@H](CCCCNC(=O)CC[C@@H](C(=O)N[C@@H](CC(C)C)C(=O)N[C@@H](CO)C(N)=O)NC(=O)[C@H](Cc3csc5ccccc35)NC(=O)[C@H](Cc3ccccc3C(F)(F)F)NC4=O)NC(=O)[C@H](Cc3ccccc3)NC(=O)[C@H](C)NC(=O)C3(CCC3)NC(=O)[C@H](Cc3cccc(C(=O)O)c3)NC(=O)[C@H](CC(=O)O)NC1=O)NC(=O)[C@H](CC(C)(C)C)NC(=O)[C@H](CC(=O)O)NC2=O (relative stereo) [I-140, Ac-PL3-Asp-Npg-B5-Asp-3COOHF-Cbg-Ala-Phe-Lys*3-PyrS2-2F3MeF-BztA-GlnR*3-Leu-Ser-NH2] | ≤ 1000 nM
13 | CC(=O)N1CCC[C@]12CC=CCCCC1(CCCC=CCCCOC(=O)N3CC[C@@]4(C3)NC(=O)[C@H](CCCCNC(=O)CC[C@@H](C(=O)N[C@@H](C)C(N)=O)NC(=O)[C@H](Cc3csc5ccccc35)NC(=O)[C@H](Cc3ccccc3C(F)(F)F)NC4=O)NC(=O)[C@H](Cc3ccccc3)NC(=O)[C@H](C)NC(=O)C(C)(C)NC(=O)[C@H](Cc3cccc(C(=O)O)c3)NC(=O)[C@H](CCC(=O)O)NC1=O)NC(=O)[C@H](CC(C)(C)C)NC(=O)[C@H](CCC(=O)O)NC2=O (relative stereo) [I-291, Ac-PL3-Glu-Npg-B5-Glu-3COOHF-Aib-Ala-Phe-Lys*3-PyrS2-2F3MeF-BztA-GlnR*3-Ala-NH2] | 1000 to 5000 nM
14 | CC(=O)N1CCC[C@]12CC=CCCCC1(CCCC=CCCCOC(=O)N3CC[C@@]4(C3)NC(=O)[C@H](CCCCNC(=O)CC[C@@H](C(=O)N[C@@H](C)C(N)=O)NC(=O)[C@H](Cc3csc5ccccc35)NC(=O)[C@H](Cc3ccccc3C(F)(F)F)NC4=O)NC(=O)[C@H](Cc3ccccc3)NC(=O)[C@H](C)NC(=O)[C@H](C(C)C)NC(=O)[C@H](CN(CC(=O)O)CC(F)(F)F)NC(=O)[C@H](CC(=O)O)NC1=O)NC(=O)[C@H](CC(C)(C)C)NC(=O)[C@H](CC(=O)O)NC2=O (single isomer, unassigned) [I-125, Ac-PL3-Asp-Npg-B5-Asp-TfeGA-Val-Ala-Phe-Lys*3-PyrS2-2F3MeF-BztA-GlnR*3-Ala-NH2] | 1000 to 5000 nM
15 | CC(=O)N1CCC[C@]12CC=CCCCC1(CCCC=CCCCOC(=O)N3CC[C@@]4(C3)NC(=O)[C@H](CCCCNC(=O)CC[C@@H](C(=O)NC(C)(C)C(N)=O)NC(=O)[C@H](Cc3csc5ccccc35)NC(=O)[C@H](Cc3ccccc3C(F)(F)F)NC4=O)NC(=O)[C@H](Cc3ccccc3)NC(=O)[C@H](C)NC(=O)[C@H](C)NC(=O)[C@H](CN(CC(=O)O)CC(F)(F)F)NC(=O)[C@H](CC(=O)O)NC1=O)NC(=O)[C@H](CC(C)(C)C)NC(=O)[C@H](CC(=O)O)NC2=O (single isomer, unassigned) [I-126, Ac-PL3-Asp-Npg-B5-Asp-TfeGA-Ala-Ala-Phe-Lys*3-PyrS2-2F3MeF-BztA-GlnR*3-Aib-NH2] | 1000 to 5000 nM
16 | CC(=O)N1CCC[C@]12CC=CCCCC1(CCCC=CCCCOC(=O)N3CC[C@@]4(C3)NC(=O)[C@H](CCCCNC(=O)CC[C@@H](C(=O)N[C@@H](CC(C)C)C(N)=O)NC(=O)[C@H](Cc3csc5ccccc35)NC(=O)[C@H](Cc3ccccc3C(F)(F)F)NC4=O)NC(=O)[C@H](Cc3ccccc3)NC(=O)[C@H](C)NC(=O)[C@H](C)NC(=O)[C@H](CN(CC(=O)O)CC(F)(F)F)NC(=O)[C@H](CC(=O)O)NC1=O)NC(=O)[C@H](CC(C)(C)C)NC(=O)[C@H](CC(=O)O)NC2=O (relative stereo) [I-128, Ac-PL3-Asp-Npg-B5-Asp-TfeGA-Ala-Ala-Phe-Lys*3-PyrS2-2F3MeF-BztA-GlnR*3-Leu-NH2] | 1000 to 5000 nM
17 | CC(=O)N1CCC[C@]12CC=CCCCC1(CCCC=CCCCOC(=O)N3CC[C@@]4(C3)NC(=O)[C@H](CCCCNC(=O)CCC[C@@H](C(=O)N[C@@H](C)C(N)=O)NC(=O)[C@H](Cc3csc5ccccc35)NC(=O)[C@H](Cc3ccsc3)NC4=O)NC(=O)[C@H](Cc3ccccc3)NC(=O)[C@H](C)NC(=O)[C@H](C)NC(=O)[C@H](Cc3cccc(C(=O)O)c3)NC(=O)[C@H](CC(=O)O)NC1=O)NC(=O)[C@H](CC(C)(C)C)NC(=O)[C@H](CC(=O)O)NC2=O (relative stereo) [I-183, Ac-PL3-Asp-Npg-B5-Asp-3COOHF-Ala-Ala-Phe-Lys*3-PyrS2-3Thi-BztA-hGlnR*3-Ala-NH2] | 1000 to 5000 nM

Same assay, conditions: read-out: DLD1 4% Abs IC50; DLD1 reporter, 4%

Row | Molecule | IC50
18 | CC(=O)N1CCC[C@]12CC=CCCCC1(CCCC=CCCCOC(=O)N3CC[C@@]4(C3)NC(=O)[C@H](Cc3cn(nn3)CCCC[C@@H](C(=O)N[C@@H](C)C(N)=O)NC(=O)[C@H](Cc3csc5ccccc35)NC(=O)[C@H](Cc3ccsc3)NC4=O)NC(=O)[C@H](Cc3ccccc3)NC(=O)[C@H](C)NC(=O)C(C)(C)NC(=O)[C@H](Cc3cccc(C(=O)O)c3)NC(=O)[C@H](CC(=O)O)NC1=O)NC(=O)[C@H](CC(C)(C)C)NC(=O)[C@H](CC(=O)O)NC2=O (stereo partly drawn) [I-336, Ac-PL3-Asp-Npg-B5-Asp-3COOHF-Aib-Ala-Phe-sAla*3-PyrS2-3Thi-BztA-TriAzLys*3-Ala-NH2] | 1000 to 5000 nM
19 | CC(=O)N1CCC[C@]12CC=CCCCC1(CCCC=CCCCOC(=O)N3CC[C@@]4(C3)NC(=O)[C@H](Cc3cn(nn3)CCCC[C@@H](C(=O)N[C@@H](C)C(N)=O)NC(=O)[C@H](Cc3csc5ccccc35)NC(=O)[C@H](Cc3ccsc3)NC4=O)NC(=O)[C@H](Cc3ccccc3)NC(=O)[C@H](C)NC(=O)[C@H](C)NC(=O)[C@H](Cc3cccc(C(=O)O)c3)NC(=O)[C@H](CC(=O)O)NC1=O)NC(=O)[C@H](CC(C)(C)C)NC(=O)[C@H](CC(=O)O)NC2=O (stereo partly drawn) [I-338, Ac-PL3-Asp-Npg-B5-Asp-3COOHF-Ala-Ala-Phe-sAla*3-PyrS2-3Thi-BztA-TriAzLys*3-Ala-NH2] | ≤ 1000 nM
